Here are results for six molecules from article PMC10952133, “Phytocystatin 6 is a context‐dependent, tight‐binding inhibitor of Arabidopsis thaliana legumain isoform β” (The Plant Journal, 2023).

As a reminder, the Ki is the dissociation constant of the complex between target and ligand, obtained from inhibition or displacement.

Test [1] concerns the target Arabidopsis thaliana legumain isoform β, activated (AtLEGβ) (Arabidopsis thaliana) (UniProt Q39044). Nature of the test: enzyme inhibition kinetics (Ki, Morrison equation); turnover of 50 μM Z-Ala-Ala-Asn-AMC by 50 nM legumain, 25°C, 20 mM citric acid pH 5.5, 100 mM NaCl, 0.02% Tween 20, 2 mM DTT; inhibitor in 1:2 serial dilutions from 15-fold the enzyme concentration, quadruplicates.

The target is the same in test [2].
In test [3] the target is Arabidopsis thaliana legumain isoform γ, activated (AtLEGγ) (Arabidopsis thaliana) (UniProt Q39119). Description: enzyme inhibition kinetics (Ki, Morrison equation); turnover of 50 μM Z-Ala-Ala-Asn-AMC by 50 nM legumain, 25°C, 20 mM citric acid pH 5.5, 100 mM NaCl, 0.02% Tween 20, 2 mM DTT; inhibitor in 1:2 serial dilutions from 15-fold the enzyme concentration, quadruplicates.
Chain of Arabidopsis thaliana legumain isoform γ, activated (AtLEGγ) (Arabidopsis thaliana) (Q39119 30-494): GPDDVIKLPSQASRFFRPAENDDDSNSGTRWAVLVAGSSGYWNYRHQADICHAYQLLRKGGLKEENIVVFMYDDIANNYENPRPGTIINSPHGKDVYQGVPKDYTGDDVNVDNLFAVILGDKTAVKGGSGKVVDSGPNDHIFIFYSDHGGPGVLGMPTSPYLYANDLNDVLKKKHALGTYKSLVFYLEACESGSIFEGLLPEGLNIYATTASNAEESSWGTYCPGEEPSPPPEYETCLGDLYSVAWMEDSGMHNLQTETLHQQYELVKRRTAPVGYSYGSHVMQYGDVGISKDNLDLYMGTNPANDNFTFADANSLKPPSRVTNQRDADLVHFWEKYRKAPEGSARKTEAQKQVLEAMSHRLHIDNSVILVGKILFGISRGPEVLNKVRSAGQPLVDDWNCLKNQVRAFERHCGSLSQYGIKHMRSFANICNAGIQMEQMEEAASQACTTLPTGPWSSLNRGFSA

The target of test [4] is human legumain, activated (hLEG) (human) (UniProt Q99538). The description is as above.
Chain of human legumain, activated (hLEG) (human) (Q99538 18-323): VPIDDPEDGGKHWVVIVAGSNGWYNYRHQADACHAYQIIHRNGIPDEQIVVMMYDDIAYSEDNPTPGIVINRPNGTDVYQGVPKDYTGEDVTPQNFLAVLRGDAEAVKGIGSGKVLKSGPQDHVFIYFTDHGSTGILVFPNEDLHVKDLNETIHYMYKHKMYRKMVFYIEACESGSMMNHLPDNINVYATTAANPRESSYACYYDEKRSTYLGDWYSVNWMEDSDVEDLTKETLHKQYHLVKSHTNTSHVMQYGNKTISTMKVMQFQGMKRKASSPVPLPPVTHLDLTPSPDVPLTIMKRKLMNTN
Test [5] concerns the target T1, Papain from Carica papaya (Carica papaya, UniProt P00784 134-345).
T1 construct: papain of Carica papaya, used as a model of the papain-like cysteine proteases; source: bought: Merck
T1 sequence (looked up): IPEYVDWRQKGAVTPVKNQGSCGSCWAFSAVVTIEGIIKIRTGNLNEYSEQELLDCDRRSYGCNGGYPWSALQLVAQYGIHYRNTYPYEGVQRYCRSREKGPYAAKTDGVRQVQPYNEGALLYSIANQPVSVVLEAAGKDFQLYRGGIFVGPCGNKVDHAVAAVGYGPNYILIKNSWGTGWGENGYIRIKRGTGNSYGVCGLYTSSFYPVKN
Nature of the test: enzyme inhibition kinetics (Ki, Morrison equation); turnover of 50 μM Z-Phe-Arg-AMC by 50 nM papain, 25°C, 20 mM MES pH 6.0 (legend of Figure 3: pH 6.5), 50 mM NaCl, 0.02% Tween 20, 2 mM DTT; inhibitor in 1:2 serial dilutions from 15-fold the enzyme concentration, quadruplicates.

Like-named read-outs stand apart in the source and are kept apart here.

Chain of Arabidopsis thaliana legumain isoform β, activated (AtLEGβ) (Arabidopsis thaliana) (Q39044 22-486): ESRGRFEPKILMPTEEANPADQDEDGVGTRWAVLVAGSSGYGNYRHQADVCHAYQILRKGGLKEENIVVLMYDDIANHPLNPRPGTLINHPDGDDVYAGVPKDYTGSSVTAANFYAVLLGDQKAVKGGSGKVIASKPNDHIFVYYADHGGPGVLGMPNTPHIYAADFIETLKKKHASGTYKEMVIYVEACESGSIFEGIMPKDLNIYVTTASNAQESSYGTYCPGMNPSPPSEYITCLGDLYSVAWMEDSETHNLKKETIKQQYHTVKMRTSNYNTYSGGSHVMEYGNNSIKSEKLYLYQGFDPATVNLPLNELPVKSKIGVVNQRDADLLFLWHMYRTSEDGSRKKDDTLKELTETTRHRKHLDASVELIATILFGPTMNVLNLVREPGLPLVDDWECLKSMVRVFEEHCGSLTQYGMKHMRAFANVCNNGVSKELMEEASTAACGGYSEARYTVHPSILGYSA

AtCYT6-CTD-K208A (domain or fragment) gave a Ki in test [1] of 3.98 nM.
AtCYT6-CTD-R205A (domain or fragment) had a Ki in test [1] of 3.36 nM.
“C-terminal domain of AtCYT6 (AtCYT6-CTD, E142-D235) (domain or fragment)”: in test [2], the inflection temperature T i of AtLEGβ by nanoDSF at pH 6.5, equimolar AtCYT6-CTD (AtLEGβ alone 49.6°C) stood at 57 °C. In addition, the Ki in test [1] was 0.61 nM; in test [3], 0.86 nM; in test [4] it was 61.4 nM.
The molecule “C-terminal domain of AtCYT6 carrying the interdomain linker (AtCYT6-CTDlong, A128-D235) (domain or fragment)” returned a Ki in test [1] of 0.68 nM.
With “full-length AtCYT6 lacking the N-terminal signal peptide (AtCYT6-FL, A35-D235) (natural protein)”, the inflection temperature T i of AtLEGβ by nanoDSF at pH 6.5, equimolar AtCYT6-FL (AtLEGβ alone 49.6°C) in test [2] amounted to 58.9 °C. The Ki in test [1] turned out to be 0.29 nM; in test [3], 1.21 nM; in test [4] it was 106 nM; in test [5], 27.8 nM.

B1: N-terminal domain of AtCYT6 (AtCYT6-NTD, A35-D127) (domain or fragment, Arabidopsis thaliana, UniProt Q8H0X6-1 35-127, looked up)
chain: ALVGGVGDVPANQNSGEVESLARFAVDEHNKKENALLEFARVVKAKEQVVAGTLHHLTLEILEAGQKKLYEAKVWVKPWLNFKELQEFKPASD
notes: Arabidopsis thaliana cystatin 6, N-terminal cystatin domain, residues A35-D127; Cloned into pET-28; source: E. coli BL21(DE3), purified (Ni-NTA, SEC)
B1: in test [5] (both partners purified), the inhibition constant Ki was 6.3 ± 1.43 nM.
